Key:
[1] = target: N2.1/ROMK chimera with the N375PNF tract replaced with AAAA; test: cell-based or functional assay
myc-tagged ARH = target: T1, myc-tagged ARH (human, UniProt Q5SW96 1-308, limits assumed); test: co-immunoprecipitation from COS-7 cells
T1 construct: Expressed in COS-7 cells
T1 sequence: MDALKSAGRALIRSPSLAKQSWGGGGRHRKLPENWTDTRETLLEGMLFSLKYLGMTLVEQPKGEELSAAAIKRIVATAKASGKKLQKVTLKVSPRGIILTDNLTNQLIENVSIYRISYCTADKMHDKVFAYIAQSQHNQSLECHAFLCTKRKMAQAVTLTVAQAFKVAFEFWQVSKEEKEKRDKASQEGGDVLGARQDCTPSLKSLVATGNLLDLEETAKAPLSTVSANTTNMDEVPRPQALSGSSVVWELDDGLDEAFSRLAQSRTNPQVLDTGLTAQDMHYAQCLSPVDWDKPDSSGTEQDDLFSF
Description: Using immunofluorescent confocal microscopy it was determined that ARH is predominately expressed in the distal nephron, where it co-localizes with ROMK in subapical and perinuclear compartments (FIG. 2A). See Example D. It was also determined that ROMK co-immunoprecipitates with ARH on anti-ARH antibody-bound beads but not with an unrelated IgG (FIG. 2B). The specificity of the ARH-ROMK co-immunoprecipitation was corroborated by similar studies with different antibodies, HA-epitope-tagged ROMK and myc-tagged-ARH in COS-7 cells (FIGS. 2C & D). Importantly, alanine replacement of the NPNF motif in ROMK completely abrogated the ARH-ROMK co-immunoprecipitation.

“ARH co-expressed in COS-7 cells (from UniProt Q5SW96 1-308)” was tested, and the surface expression [1] was 100%.

B1: HA-epitope-tagged mutant ROMK lacking the NPXF motif (alanine replacement of the NPNF motif) (other)
chain: MGASERSVFRVLIRALTERMFKHLRRWFITHIFGRSRQRARLVSKEGRCNIEFGNVDAQSRFIFFVDIWTTVLDLKWRYKMTVFITAFLGSWFLFGLLWYVVAYVHKDLPEFYPPDNRTPCVENINGMTSAFLFSLETQVTIGYGFRFVTEQCATAIFLLIFQSILGVIINSFMCGAILAKISRPKKRAKTITFSKNAVISKRGGKLCLLIRVANLRKSLLIGSHIYGKLLKTTITPEGETIILDQTNINFVVDAGNENLFFISPLTIYHIIDHNSPFFHMAAETLSQQDFELVVFLDGTVESTSATCQVRTSYVPEEVLWGYRFVPIVSKTKEGKYRVDFHNFGKTVEVETPHCAMCLYNEKDARARMKRGYDAAAAVLSEVDETDDTQM
notes: Expressed in COS-7 cells
B1: no binding (myc-tagged ARH).
